B1: Insulin receptor substrate 1 (Rattus norvegicus (Rat)), P35570 (parent)
chain: MASPPDTDGFSDVRKVGYLRKPKSMHKRFFVLRAASEAGGPARLEYYENEKKWRHKSSAPKRSIPLESCFNINKRADSKNKHLVALYTRDEHFAIAADSEAEQDSWYQALLQLHNRAKAHHDGAGGGCGGSCSGSSGVGEAGEDLSYDTGPGPAFKEVWQVILKPKGLGQTKNLIGIYRLCLTSKTISFVKLNSEAAAVVLQLMNIRRCGHSENFFFIEVGRSAVTGPGEFWMQVDDSVVAQNMHETILEAMRAMSDEFRPRTKSQSSSSCSNPISVPLRRHHLNNPPPSQVGLTRRSRTESITATSPASMVGGKPGSFRVRASSDGEGTMSRPASVDGSPVSPSTNRTHAHRHRGSSRLHPPLNHSRSIPMPSSRCSPSATSPVSLSSSSTSGHGSTSDCLFPRRSSASVSGSPSDGGFISSDEYGSSPCDFRSSFRSVTPDSLGHTPPARGEEELSNYICMGGKGASTLTAPNGHYILSRGGNGHRYIPGATMGTSPALTGDEAAGAADLDNRFRKRTHSAGTSPTISHQKTPSQSSVVSIEEYTEMMPAAYPPGGGSGGRLPGYRHSAFVPTHSYPEEGLEMHHLERRGGHHRPDSSNLHTDDGYMPMSPGVAPVPSNRKGNGDYMPMSPKSVSAPQQIINPIRRHPQRVDPNGYMMMSPSGSCSPDIGGGSCSSSSISAAPSGSSYGKPWTNGVGGHHTHALPHAKPPVESGGGKLLPCTGDYMNMSPVGDSNTSSPSECYYGPEDPQHKPVLSYYSLPRSFKHTQRPGEPEEGARHQHLRLSSSSGRLRYTATAEDSSSSTSSDSLGGGYCGARPESSVTHPHHHALQPHLPRKVDTAAQTNSRLARPTRLSLGDPKASTLPRVREQQQQQQQQQQSSLHPPEPKSPGEYVNIEFGSGQPGYLAGPATSRSSPSVRCLPQLHPAPREETGSEEYMNMDLGPGRRATWQESGGVELGRVGPAPPGAASICRPTRSVPNSRGDYMTMQIGCPRQSYVDTSPVAPVSYADMRTGIAAEKVSLPRTTGAAPPPSSTASASASVTPQGAAEQAAHSSLLGGPQGPGGMSAFTRVNLSPNHNQSAKVIRADTQGCRRRHSSETFSAPTRAANTVSFGAGAAGGGSGGGSEDVKRHSSASFENVWLRPGDLGGASKESAPGCGAAGGLEKSLNYIDLDLVKDVKQHPQDCPSQQQSLPPPPPHQPLGSNEGSSPRRSSEDLSTYASINFQKQPEDRQ
partner: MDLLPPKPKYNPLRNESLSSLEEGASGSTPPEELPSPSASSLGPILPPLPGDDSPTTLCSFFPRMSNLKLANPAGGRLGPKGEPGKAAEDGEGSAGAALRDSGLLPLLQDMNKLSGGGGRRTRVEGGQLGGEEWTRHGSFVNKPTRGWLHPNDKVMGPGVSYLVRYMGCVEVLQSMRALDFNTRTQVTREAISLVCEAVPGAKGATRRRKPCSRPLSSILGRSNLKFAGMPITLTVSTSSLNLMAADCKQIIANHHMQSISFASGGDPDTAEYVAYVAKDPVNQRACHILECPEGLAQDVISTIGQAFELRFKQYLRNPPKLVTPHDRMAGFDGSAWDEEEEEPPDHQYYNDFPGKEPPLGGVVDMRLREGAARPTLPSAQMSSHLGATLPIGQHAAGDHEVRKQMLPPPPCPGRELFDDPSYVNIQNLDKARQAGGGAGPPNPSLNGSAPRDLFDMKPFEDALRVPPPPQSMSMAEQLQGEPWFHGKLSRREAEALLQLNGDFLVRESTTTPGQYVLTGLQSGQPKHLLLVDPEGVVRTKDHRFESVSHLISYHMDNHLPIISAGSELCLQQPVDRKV

Results on one variant are retold here after IntAct's records for PubMed 11259577.

The variants in this test derive from B1. Conditions: with shc1_mouse Shc1, P98083.
Turning to Y895F, the “effect of a mutation on the interaction” value was “with no effect”.
